Target: SNAP-LepR:EGFR complex (UniProt P48356)
Assay: FRET or BRET

For EGF-d2 (ligand), the Kd was 2.1 nM.
